Data published in patent US20040166544A1 (published 2004).
Values joined by “and” are separate entries in the source; they are usually repeats but may differ in a detail not shown here. Equal values may be shown once.

Assays:
[1] = target: T1, c-Met/Fc Chimera (R&D Systems, catalog # 358-MT-100) (human, UniProt P08581 25-932); test: competition ELISA: displacement of biotinylated HGF from plate-coated c-Met/Fc chimera, Fab, n = 2
T1 construct: extracellular domain; Bought reagent; also called human c-Met-Fc fusion protein; recombinant c-Met protein; Fc part of the bought chimera not given
Description: (§1) 96-well Fluoronunc plates were coated with 50 ul of 0.5 ug/ml c-Met/Fc Chimera (R&D Systems, Minneapolis Minn., catalog # 358-MT-100) in phosphate buffered saline (PBS) and the plates were incubated overnight at room temperature. Wells were washed three times with washing buffer (PBS+0.1% Tween 20), blotting the plates on paper towels between each wash. Nonspecific binding in the wells was blocked by the addition of 250 ul of blocking buffer (3.0% milk (Carnation) in PBS) to each well and incubated at room temperature for two hours.
(§2) The c-Met antibodies were diluted in reagent buffer (PBS, 0.5% BSA, 0.05% Tween-20) and titrations were performed in 96 well polypropylene plates. Biotinylated HGF (0.4 ug/ml) (R&D Systems, biotinylated with Pierce #21335 as per manufacturer's instructions) was added to each well. 50 ul of the dilutions were transferred into the Fluoronunc plates containing human c-Met-Fc fusion protein (R&D Systems, #) and the plates were incubated for two hours at room temperature. The plates were washed three times with wash buffer and blotted onto paper towels. 50 ul of europium-labeled Streptavidin (Wallac Perkin Elmer) diluted 1:1000 in Delfia assay buffer (Wallac Perkin Elmer) was added per well and the plates were incubated for one hour at room temperature. The plates were washed seven times with Delfia wash buffer (Tris buffered saline (TBS) supplemented with 0.1% Tween-20) and blotted onto paper towels. 100 ul Delfia enhancer solution (Wallac Perkin Elmer) was added to each well and the plates incubated for 5 minutes on a plate shaker at room temperature. Plates were read on a fluorescence plate reader and analyzed using GraphPad Prism software (GraphPad Software, San Diego, Calif.).
(§3) C-Met antibodies 1A3.3.13 (#HB-11894, ATCC Hybridoma) and 5D5.11.6 (#HB-11895, ATCC Hybridoma) were used as positive controls. MOPC-21 (#M-7894, Sigma) was used as an IgG isotype control and HB-94 (#HB-94, ATCC Hybridoma) was converted into a Fab fragment and used as a Fab isotype control. NK4-Elastase is a kringle to kringle 4 fragment resulting from digesting intact HGF purified from S-114 cells with elastase (Date et al., FEBS Lett. 420:1-6 ([…]).

[2] = target: T1, c-Met/Fc Chimera (R&D Systems, catalog …); test: competition ELISA: displacement of biotinylated HGF from plate-coated c-Met/Fc chimera, IgG, n = 2
Description: as §1, §2, §3

[3] = target: c-Met (endogenous, on human cell lines 184B5, HCT-116, DU-145 and NCI H441) (human, UniProt P08581 25-1390); test: cell-based or functional assay
[4] = target: T2, biotinylated c-Met-Fc (R&D Systems, #358-MT-100/CF, 5.1 biotin per c-Met molecule) (human, UniProt P08581 25-932, biotinylated, 5.1 biotin per c-Met molecule (Pierce #21335)); test: SPR (BIAcore), biotinylated c-Met-Fc captured on streptavidin chip, IgG as analyte, bivalent model
T2 construct: extracellular domain; Captured on a streptavidin (SA) chip for the BIAcore study of the IgGs; Fc part of the bought chimera not given
Description: The binding properties (on-rate, off-rate and affinity) of c-Met monoclonal antibodies (IgG or Fab versions) with human c-Met extracellular domain was determined using surface plasmon resonance, or BLAcore, technology. For the binding studies with IgG, a low density (<1 ng/mm2) of c-Met-Fc (R&D Systems, #358-MT-100/CF) containing 5.1 biotin per c-Met molecule (prepared with Pierce #21335 as per manufacturer's instructions) was captured onto a SA chip precoated with Streptavidin (BIAcore Inc.). A streptavidin flow cell without adsorbed c-Met-Fc was used as a control cell for non-specificbinding. The antibody sample to be analyzed was prepared in HEPES buffer (0.15M NaCl, 10 mM HEPES, 3.4 mM EDTA, 0.005% surfactant P-20, pH 7.4) to form a set of solutions varied in concentration from 0.78 nM to 100 nM. The HEPES buffer used as the running solution was set at a flow rate of 50 ul/min. Each sample solution was injected over the two flow cells for three minutes, followed by 5 minutes of dissociation. The flow cells were then regenerated with 4.5M MgCl₂ for one minute to remove the bound antibody for the next cycle of binding study. The net sensorgrams (subtraction of sensorgrams from the negative control flow cell as well as that from the buffer blank) obtained for each set of samples were processed simultaneously in a global fitting using a bivalent binding model of the BIAevaluation software program equipped with the system. The on-rate (Kₐ), off-rate (Kd) and binding affinity (KD) were determined from the fitting with KD equal to kd/kₐ.

[5] = target: T1, c-Met/Fc Chimera (R&D Systems, catalog …); test: SPR (BIAcore), c-Met-Fc captured on protein A CM5 chip, Fab as analyte, 1:1 Langmuir model
Description: For the binding study of Fab fragments derived from antibodies of the invention, a high density (>2 ng/mm²) of protein A was first immobilized covalently onto a CM5 sensorchip using EDC/NHS amine coupling chemistry [. The flow cell containing c-Met-Fc captured by the protein A was used as the positive control while a flow cell containing only protein A was used as the negative control. The Fab sample to be analyzed was as above for antibodies to form a set of solutions with concentration ranged from 3.9 nM to 500 nM. The HEPES buffer used as the running solution was set at a flow rate of 50 ul/min. For each cycle of binding study, low density (<1 ng/mm²) of c-Met-Fc was captured first onto the positive flow cell. Each sample solution was then injected over the two flow cells (one negative and one positive in series) for three minutes followed by 5 minutes of dissociation. The flow cells were then regenerated with 4.5M MgCl₂ for one minute to remove the bound c-Met-Fc/Fab complexes for the next cycle of binding. The net sensorgrams (subtraction of sensorgrams from the negative control flow cell as well as that from the buffer blank) obtained from the set of samples were fitted simultaneously in a global fitting using a Langmuir 1:1 binding model of the BIAevaluation program equipped with the system. The on-rate (Kₐ), off-rate (Kd) and binding affinity (KD) were determined from the fitting with KD equal to kd/kₐ.

| Binder | IC50 [1] | IC50 [2] | Kd [4] | koff [4] | kon [4] | also measured |
| --- | --- | --- | --- | --- | --- | --- |
| c-Met 12075 Fab (Fab, V domains shown, VH and VL limits counted as for the IgG; also called Fab fragment derived from c-Met antibody 12075) VH: QVQLVQSGPEVKKPGASVEVSCKASGYTFTGDYMHWVRQAPGQGPEWMGWINPQTGVTKYAQKFQGRVTMARDTSINTAYMELRGLRSDDTAVYYCVREDHNYDLWSAYNGLDVWGQGTLVTVSS VL: QSVLTQPPSVSAAPGQKVTISCSGSSSNIGNNHVSWYQQLAGTAPKLLIFDNDKRPSGIPDRFSGSKSGTSATLGITGLQTGDEADYYCGTWDKSPTDIYVFGSGTKLTVLG | > 125 nM | – | – | – | – | – |
| c-Met IgG antibody 12123 (antibody, V domains shown, IgG of scFv PGIA-3-B2; The VL reverse cloning primer RH62 codes ...TVLG whereas the scFv entry ends ...TVLS; also called 12123 IgG; IgG of scFv PGIA-03-B2 (PGIA-3-B2)) VH: QVQLQESGPGLVKPSATLSLTCAVSGGSISSNHWWSWVRQSPGKGLEWIGEIYTYGGANYNPSLKSRVDISMDKSKNQFSLHLSSVTAADTAVYYCGRHLTGYDCFDIWGQGTLVTVSS VL: QAVLTQPSSVSGAPGQRVTISCTGSSSNIGAGYDVHWYQQLPGTAPKLLIYGNSNRPSGVPDRFSGSKSGTSASLAITGLQAEDEADYYCQSYDSSLSGVFGTGTQLTVLS | – | 0.5 nM | 9.7 nM | 0.00329 s⁻¹ | 338000 M⁻¹ s⁻¹ | scatter assay on DU-145 cells, mean object area, agonist (alone), 100 nM IgG; the smaller the number, the more scattering [3]: 234 mean object area; scatter assay on DU-145 cells, mean object area, antagonist (w/30 pM HGF), 100 nM IgG; the smaller the number, the more scattering [3]: 226 mean object area |
| c-Met IgG antibody 12136 (antibody, V domains shown, IgG of scFv PGIA-4-A8; also called 12136 IgG; IgG of scFv PGIA-04-A8 (PGIA-4-A8)) VH: QVQLQESGPGLVKPSETLSLTCNVSGGSIRNYFWSWIRQPPGQGLEYIGYIYYSGTTDYNPSLKGRVTISLDTSKTQFSLKLNSVTAADTAFYYCVRGPNKYAFDPWGQGTLVTVSS VL: SYELTQPPSVSVSPGQTASITCSGDKLGDKFASWYQQKAGQSPVLVIYRDTKRPSGIPERFSGSNSGNTATLTISGTQAMDEADYYCQAWDSSTAVFGTGTKVTVLG | – | 1 nM | 0.8 nM | 0.000229 s⁻¹ | 294000 M⁻¹ s⁻¹ | – |
| c-Met 12136 Fab (Fab, V domains shown, VH and VL limits counted as for the IgG; also called Fab fragment derived from c-Met antibody 12136) VH: QVQLQESGPGLVKPSETLSLTCNVSGGSIRNYFWSWIRQPPGQGLEYIGYIYYSGTTDYNPSLKGRVTISLDTSKTQFSLKLNSVTAADTAFYYCVRGPNKYAFDPWGQGTLVTVSS VL: SYELTQPPSVSVSPGQTASITCSGDKLGDKFASWYQQKAGQSPVLVIYRDTKRPSGIPERFSGSNSGNTATLTISGTQAMDEADYYCQAWDSSTAVFGTGTKVTVLG | – | – | – | – | – | Kd [5]: 6 nM; koff [5]: 0.00101 s⁻¹; kon [5]: 168000 M⁻¹ s⁻¹ |
| c-Met IgG antibody 11986 (antibody, V domains shown, IgG of scFv PGIA-3-B1; also called 11986 IgG; IgG of scFv PGIA-03-B1 (PGIA-3-B1)) VH: EVQLVQSGAEVKKPGATLKVSCKVSAYTFTDYSMHWVQQAPGKGLKWMGLIDLEDGNTIYAEEFQDRVTITADTSTDTAYMDLSSLRSEDTAVFYCAISPLRGLTADVFDVWGQGTLVTVSS VL: QSALTQPASASGSPGQSITISCTGTSSDIGRYDFVSWYQRQPGKAPKLMIYDVINRPSGVSSRFSGSKSGNTASLTISGLQAEDEADYYCSSYAGSTTLYVFGTGTKLTVLG | – | 0.52 nM | – | – | – | – |
| c-Met 11986 Fab (Fab, V domains shown, VH and VL limits counted as for the IgG) VH: EVQLVQSGAEVKKPGATLKVSCKVSAYTFTDYSMHWVQQAPGKGLKWMGLIDLEDGNTIYAEEFQDRVTITADTSTDTAYMDLSSLRSEDTAVFYCAISPLRGLTADVFDVWGQGTLVTVSS VL: QSALTQPASASGSPGQSITISCTGTSSDIGRYDFVSWYQRQPGKAPKLMIYDVINRPSGVSSRFSGSKSGNTASLTISGLQAEDEADYYCSSYAGSTTLYVFGTGTKLTVLG | 80 nM | – | – | – | – | – |
| c-Met 11978 Fab (Fab, V domains shown, VH and VL limits counted as for the IgG) VH: not shown VL: NFMLTQPHSVSESPGKTVTISCTRSSGSIAFDYVQWYQQRPGSAPTTVIYEDNQRPSGVPDRFSASIDSSSNSASLTISALKTEDEADYYCQSYDNSNSWVFGGGTKLTVLG | 65.9 nM and > 125 nM | – | – | – | – | – |
| c-Met IgG antibody 12133 (antibody, V domains shown, IgG of scFv PGIA-4-A5; also called 12133 IgG; IgG of scFv PGIA-04-A5 (PGIA-4-A5)) VH: QVQLQESGPGLVKPSGTLSLTCAVSGGSISTSDWWSWVRRPPGKGLEWIGEIYHSGSTNYHPSLKSRVTISLDKSKNQFSLKLSSVTAADTAVYYCAREGGHSGSYPLDYWGRGTLVTVSS VL: NFMLTQPHSVSESPGKTATISCTGSGGSIARSYVQWYQQRPGRAPSIVIYEDYQRPSGVPDRFSGSIDSSSNSASLTITGLKTDDEADYYCQSSDDNNNVVFGGGTKVTVLG | – | 0.58 nM | 6 nM | 0.000598 s⁻¹ | 98900 M⁻¹ s⁻¹ | scatter assay on DU-145 cells, mean object area, agonist (alone), 100 nM IgG; the smaller the number, the more scattering [3]: 241 mean object area; scatter assay on DU-145 cells, mean object area, antagonist (w/30 pM HGF), 100 nM IgG; the smaller the number, the more scattering [3]: 230 mean object area |
| c-Met 12119 Fab (Fab, V domains shown, VH and VL limits counted as for the IgG; also called Fab fragment derived from c-Met antibody 12119) VH: QLQLQESGPGLVKPSGTLSLTCAVSGGSISTSDWWSWVRRPPGKGLEWIGEIYHSGSTNYHPSLKSRVTISLDKSKNQFSLKLSSVTAADTAVYYCAREGGHSGSYPLDYWGRGTLVTVSS VL: NFMLTQPHSVSESPGKTVTISCARSSGSIASNYVQWYQQRPGSSPTTLIYEDRQRPSGVPDRFSGSIDSSSNSASLTISGLKTEDEADYYCQSYDSSDHVVFGGGTKLTVLG | 10.7 nM | – | – | – | – | – |
| c-Met 12133 Fab (Fab, V domains shown, VH and VL limits counted as for the IgG; also called Fab fragment derived from c-Met antibody 12133) VH: QVQLQESGPGLVKPSGTLSLTCAVSGGSISTSDWWSWVRRPPGKGLEWIGEIYHSGSTNYHPSLKSRVTISLDKSKNQFSLKLSSVTAADTAVYYCAREGGHSGSYPLDYWGRGTLVTVSS VL: NFMLTQPHSVSESPGKTATISCTGSGGSIARSYVQWYQQRPGRAPSIVIYEDYQRPSGVPDRFSGSIDSSSNSASLTITGLKTDDEADYYCQSSDDNNNVVFGGGTKVTVLG | – | – | – | – | – | Kd [5]: 8.8 nM; koff [5]: 0.00245 s⁻¹; kon [5]: 280000 M⁻¹ s⁻¹ |
